Assay results: patent US20220170028A1, “NOVEL INTERLEUKIN-2 VARIANTS AND BIFUNCTIONAL FUSION MOLECULES THEREOF” (Cugene Inc, priority 2019, published 2022)
Entries after “also recorded” stand apart in the source; their conditions may differ.

Key:
[1] = Transient expression level of IL-2 Fc fusion constructs in HEK-293F cells; details: for expression level (titer): transiently in HEK-293F cells, Example 4
Procedure: The constructs were produced by co-transfecting HEK293-F cells growing in suspension with the mammalian expression vectors using polyethylenimine (PEI, 25,000 MW linear, Polysciences). If there were two or more expression vectors, the vectors were transfected in a 1:1 ratio. For transfection, HEK293 cells were cultivated in serum free FreeStyle™ 293 Expression Medium (ThermoFisher). For production in 1000 ml shaking flasks (working volume 330 mL), HEK293 cells were seeded at a density of 0.8×10^6 cells/ml 24 hours before transfection. A total of 330 μg of DNA expression vectors were mixed with 16.7 ml Opti-mem Medium (ThermoFisher). After addition of 0.33 mg PEI diluted in 16.7 ml Opti-mem Medium, the mixture was vortexed for 15 sec and subsequently incubated for 10 min at room temperature. The DNA/PEI solution was then added to the cells and incubated at 37° C. in an incubator with 8% CO2. Sodium butyrate (Millipore Sigma) was added to the cells at day 4 at a final concentration of […] to help sustain protein expression. After 6 days cultivation, supernatant was collected for purification by centrifugation for 20 min at 2200 rpm. The solution was sterile filtered (0.22 μm filter, Corning). The secreted protein was purified from cell culture supernatants using Protein A affinity chromatography.
(§1) S125I substitution was thus introduced into a number of IL-2 variant Fc fusion molecules. The constructs harboring Ile-125 substitution in IL-2 were expressed using the same vector and in the same culturing conditions as their Ser-125 counterparts and purified using MabSelectSure. The expression level in mg/L and purity assessed by SEC chromatography in aggregation % of exemplary molecules are summarized in Table 6. The two molecules in the same row of Table 6 share the same other amino acid substitution(s) and differ only at residue 125 with either serine or isoleucine. As an example, the SEC chromatogram and SDS-PAGE pictures of P-0447 (SEQ ID NO: 173) and its Ile-125 counterpart P-0511 (SEQ ID NO: 213) were further illustrated in FIGS. 1D and 1E.

[2] = tested on: CD4+ Treg vs CD4+ Tconv cells; assay: STAT5 phosphorylation, selectivity / activity profile Treg versus CD4+ Tconv cells, human PBMC; assay type: cell-based
From the text: (§2) Single amino acid substitutions were introduced to IL-2 at positions corresponding to amino acids interacting with receptor subunit(s) β or γ or βγ. These substitutions were aimed to reduce IL-2 signaling capacity through the intermediate affinity IL-2Rβγ complex and confer signaling specificity from the high affinity IL-2Rαβγ. IL-2 variants containing single amino acid substitutions were examined for their ability to differentially stimulate STAT5 phosphorylation in CD4 positive Treg and Tconv cells. STAT5 is known to be involved in the downstream signaling cascade upon IL-2 binding to the transmembrane IL-2 receptors. The phosphorylation of STAT5 in defined lymphocyte subpopulations was measured using fresh human peripheral blood mononuclear cells (PBMC) and the forkhead transcription factor FOXP3 was used to identify the Treg population in FACS analysis.
(§3) Briefly, human PBMC were isolated by Ficoll-Hypaque centrifugation from the buffy coat of a healthy donor. PBMC were starved in serum-free MACS buffer at 4° C. for 1 hour. 2×10^5 PBMC were then treated with serial dilutions of test compounds for 30 min at 37° C. Cells were fixed and permeabilized with Foxp3/Transcription Factor Staining Buffer Set (EBIO) by incubating with 1× Foxp3 fixation/permeabilization working solution for 30 minutes and washing with 1× permeabilization buffer. Cells were additionally fixed with Cytofix buffer and permeabilized with Perm Buffer III (BD Biosciences) and then washed. After blocking Fc receptors by adding human TruStain FcX (1:50 dilution), cells were stained with a mixture of anti-CD25-PE, anti-FOXP3-APC, anti-pSTAT5-FITC, and anti-CD4-PerCP-Cy5.5 antibodies at concentrations recommended by the manufacturer for 45 minutes at room temperature. Cells were collected by centrifugation, washed, resuspended in FACS buffer, and analyzed by flow cytometry. The flow cytometry data was gated into CD4+/Foxp3+/CD25^high and CD4+/Foxp3−/CD25^low groups for the Treg and CD4 conventional T cell subsets, respectively. Data are expressed as a percent of pStat5 positive cells in gated population.
The S125I substitution was then introduced into wild-type IL-2 or IL-2 variants that already harbored 1 or 2 mutations targeting receptor subunit(s) β or γ or βγ. The resulting IL-2 variants containing isoleucine at position 125 were tested for their ability to stimulate STAT5 phosphorylation in Treg and Tconv cells in comparison with their respective serine counterparts at position 125. Table 7 lists the potency and selectivity of IL-2 variants in Treg cells. The two molecules in the same row of Table 7 share the same other amino acid substitution(s) and differ only at position 125 with either serine or isoleucine.

[3] = Aggregate content by size-exclusion chromatography after Protein A purification; assay type: physicochemical; details: for Aggregation % (SEC): after MabSelectSure; for aggregates / high-molecular weight species (SEC): Example 4
Procedure: For affinity chromatography each supernatant was loaded on a HiTrap MabSelectSure column (CV=5 mL, GE Healthcare) equilibrated with 25 ml phosphate buffered saline, pH 7.2 (ThermoFisher). Unbound protein was removed by washing with 5 column volumes PBS, pH 7.2 and target protein was eluted with 25 mM sodium citrate, 25 mM sodium chloride, pH 3.2. Protein solution was neutralized by adding 3% of 1 M Tris pH 10.2. Ion exchange chromatography or mix-mode chromatography, including but not limited to CaptoMMC (GE Healthcare), ceramic hydroxyapatite, or ceramic fluoroapatite (Bio-Rad) was also utilized to polish the Protein A material as needed. Target protein was concentrated with an Amicon®Ultra-15 concentrator 10 KDa NMWC (Merck Millipore Ltd.)
The purity and molecular weight of the purified constructs were analyzed by SDS-PAGE with and in the absence of a reducing agent and staining with Coomassie (Imperial® Stain). The NuPAGE® Pre-Cast gel system (4-12% or 8-16% Bis-Tris, ThermoFisher) was used according to the manufacturer's instructions. The protein concentration of purified protein samples was determined by measuring the UV absorbance at 280 nm (Nanodrop Spectrophotometer, ThermoFisher) divided by the molar extinction coefficient calculated on the basis of the amino acid sequence. The aggregate content of the constructs was analyzed on an Agilent 1200 high-performance liquid chromatography (HPLC) system. Samples were injected onto an AdvanceBio size-exclusion column (300 Å, 4.6×150 mm, 2.7 μm, LC column, Agilent) using 150 mM sodium phosphate, pH 7.0 as the mobile phase at 25° C.
as §1

[4] = tested on: STAT5 phosphorylation in CD4+ Tconv cells; assay: STAT5 phosphorylation in CD4+ Tconv cells, human PBMC assay by FACS; assay type: cell-based
From the text: as §2, §3

[5] = tested on: STAT5 phosphorylation in CD4+ Treg cells; assay: STAT5 phosphorylation in CD4+ Treg cells, human PBMC assay by FACS; assay type: cell-based
From the text: as §2, §3

| Substance | Expression ([1]; Serine-125 constructs) [mg/L] | activity profile / selectivity window Treg over CD4+ Tconv (in words) [2] | Treg Selectivity ([2]; Serine-125 constructs) | Aggregation % (SEC) ([3]; Serine-125 constructs) [%] | STAT5 phosphorylation activity in CD4+ Tconv cells (in words) [4] | STAT5 phosphorylation activity in Treg cells (in words) [5] | expression level (titer) [1] | aggregates / high-molecular weight species (SEC) [3] [%] | Expression ([1]; Isoleucine-125 constructs) [mg/L] | Treg Selectivity ([2]; Isoleucine-125 constructs) | Aggregation % (SEC) ([3]; Isoleucine-125 constructs) [%] | potency in Treg cells relative to CD4+ Tconv cells [2] |
| --- | --- | --- | --- | --- | --- | --- | --- | --- | --- | --- | --- | --- |
| P-0447: IL-2 L19H/Q126E Fc fusion, SEQ ID NO: 173 | 7.3 | on par with Benchmark-2 | Yes | 23.7 | nearly completely abolished; also recorded: largely abolished | robust biological activity; also recorded: significant potency | – | – | – | – | – | – |
| P-0424: IL-2 L19H Fc fusion, SEQ ID NO: 153 | 7.7 | selective activation of Treg cells over CD4+ Tconv cells | Yes | 21.4 | reduced | – | – | – | – | – | – | – |
| P-0318: IL-2 D20I/N88I Fc fusion, SEQ ID NO: 97 | – | – | – | – | – | – | similarly low level | 65 | – | – | – | – |
| P-0493: IL-2 D20E/S125I Fc fusion, SEQ ID NO: 192 | – | – | – | – | – | – | – | – | 7.9 | Yes | 1.7 | – |
| P-0419: IL-2 L19Y/Q126E Fc fusion, SEQ ID NO: 105 | 6.7 | significantly widened; also recorded: very comparable to that of the Benchmark-1 molecule; also recorded: comparable activity profile to Benchmark-1 | Yes | 33.8 | varied significantly; also recorded: largely abolished | mainly reserved; also recorded: retained comparable potency; also recorded: significant potency | – | – | – | – | – | – |
| P-0491: IL-2 L19H/S125I Fc fusion, SEQ ID NO: 190 | – | without altering Treg selectivity | – | – | – | slightly increased potency | – | – | 36.7 | Yes | 0.6 | – |
| P-0317: IL-2 D20I/N88R Fc fusion, SEQ ID NO: 96 | – | – | – | – | – | – | similarly low level | 7.5 | – | – | – | – |
| P-0492: IL-2 L19D/S125I Fc fusion, SEQ ID NO: 191 | – | – | – | – | – | – | – | – | 13.6 | Yes | 0 | – |
| P-0364: IL-2 D20E Fc fusion, SEQ ID NO: 75 | 0.7 | – | Yes | 21.1 | largely diminished or abolished | ability to induce STAT5 phosphorylation | – | – | – | – | – | – |
| P-0494: IL-2 D20T/S125I Fc fusion, SEQ ID NO: 193 | – | – | – | – | – | – | – | – | 11.7 | – | 0.5 | – |
| P-0495: IL-2 L19Y/S125I/Q126E Fc fusion, SEQ ID NO: 194 | – | – | – | – | – | – | – | – | 23.5 | Yes | 0.8 | – |
| P-0363: IL-2 D20T Fc fusion, SEQ ID NO: 74 | 1.4 | some or significant biased selective window | – | 29.4 | largely diminished or abolished | ability to induce STAT5 phosphorylation | – | – | – | – | – | – |
| P-0425: IL-2 L19D Fc fusion, SEQ ID NO: 154 | 2.6 | wide window for selective targeting of Treg subset | Yes | 32.6 | significantly impaired | slightly reduced potency | – | – | – | – | – | – |
| P-0471: IL-2 L19Y/S125I Fc fusion, SEQ ID NO: 183 | – | – | – | – | varied significantly | retained comparable potency | 19.3 mg/L | 1 | 19.3 | Yes | 1.0 | – |
| P-0250: wild type IL-2 Fc fusion protein, C-terminal fusion, SEQ ID NO: 71 [reference compound] | 3.1 | – | Yes | 25.7 | – | – | around 3 mg/L | – | – | – | – | about 250 fold |
